From patent US20230295310A1 (ABCELLERA BIOLOGICS, published 2023)
Where a chain is given by its changes, count along the chain named. Each block holds one binder with its values, some of them ahead of it.

Biological target: EGFR on HeLa cells (UniProt P00533 25-1210, limits assumed)
Assay: cell-based or functional assay

- X… HeLa EC50: 0.061 nM
B2: GOMP001_bsAb_032 (bispecific antibody, human IgG1, kappa, L234A L235A)
heavy 1: QGQLVESGGGVVQPGRSLRLSCAASGFTFRGFGMHWVRKAPGKGLEWVAIIYYDGKNKYYADEVKGRFTISRDNSKNTLYLQMNSLRAEDTAVYYCAKGGGYNWFDPWGQGTLVTVSSASTKGPSVFPLAPSSKSTSGGTAALGCLVADYFPEPVTVSWNSGALTSGVHTFPAVLQSSGLYSLSSVVTVPSSSLGTQTYICNVNHKPSNTKVDEKVEPKSCDKTHTCPPCPAPEAAGGPSVFLFPPKPKDTLMISRTPEVTCVVVDVSHEDPEVKFNWYVDGVEVHNAKTKPREEQYNSTYRVVSVLTVLHQDWLNGKEYKCKVSNKALPAPIEKTISKAKGQPREPQVYTLPPSREEMTDNQVSLTCLVKGFYPSDIAVEWESNGQPENNYKTTPPVLMSDGSFFLASKLTVDKSRWQQGNVFSCSVMHEALHNHYTQKSLSLSPG
light 1: RIQMTQSPSSLSASVGDRVTITCRASQSISTYLNWYQDKPGKAPKLLIYSASSLQSGVPSRFSGSGSGTDFTLTISNLQPEDFAIYYCQRSYSPPFTFGPGTKLDIRRTVAAPSVFIFPPSDKQLKSGTARVVCLLNNFYPREAKVQWKVDNALQSGNSQESVTEQDSKDSTYSLSSTLTLSKADYEKHKVYACEVTHQGLSSPVTKSFNRGEC
heavy 2: QVQLVQSGAEVKKPGASVKVSCKASGYTFTSHWMHWVRYAPGQGLEWIGEFNPSNGRTNYNEKFKSKATMTVDTSTNTAYMELSSLRSEDTAVYYCASRDYDYDGRYFDYWGRGTLVTVSSASTKGPSVFPLAPSSKSTSGGTAALGCLVKDYFPEPVTVSWNSGALTSGVHTFPAVLQSSGLYSLSSVVTVPSSSLGTQTYICNVNHKPSNTKVDKKVEPKSCDKTHTCPPCPAPEAAGGPSVFLFPPKPKDTLMISRTPEVTCVVVDVSHEDPEVKFNWYVDGVEVHNAKTKPREEQYNSTYRVVSVLTVLHQDWLNGKEYKCKVSNKALPAPIEKTISKAKGQPRRPRVYTLPPSREEMTKNQVSLVCLVKGFYPSDIAVEWESNGQPENNYKTTPPVLDSDGSFFLYSVLTVDKSRWQQGNVFSCSVMHEALHNHYTQKSLSLSPG
light 2: DIQMTQSPSSLSASVGDRVTITCSASSSVTYMYWYQRKPGDAPKLLIYDTSNLASGVPSRFSGSGSGTDYTFTISSLQPEDIATYYCQQWSSHIFTFGQGTKVEIKRTVAAPSVFIFPPSDEQLKSGTASVVCLLNNFYPREAKVQWKVDNALQSGNSQESVTEQDSKDSTYSLSSTLTLSKADYEKHKVYACEVTHQGLSSPVTKSFNRGEC
- Max killing %: 98.1%

- X… HeLa EC50: 0.174 nM
B3: GOMP001_bsAb_037 (bispecific antibody, human IgG1, kappa, L234A L235A)
heavy 1: QVQLVQSGAEVKKPGASVKVSCKASGYTFTSHWMHWVRKAPGQGLEWIGEFNPSNGRTNYNEEFKSKATMTVDTSTNTAYMELSSLRSEDTAVYYCASRDYDYDGRYFDYWGQGTLVTVSSASTKGPSVFPLAPSSKSTSGGTAALGCLVADYFPEPVTVSWNSGALTSGVHTFPAVLQSSGLYSLSSVVTVPSSSLGTQTYICNVNHKPSNTKVDEKVEPKSCDKTHTCPPCPAPEAAGGPSVFLFPPKPKDTLMISRTPEVTCVVVDVSHEDPEVKFNWYVDGVEVHNAKTKPREEQYNSTYRVVSVLTVLHQDWLNGKEYKCKVSNKALPAPIEKTISKAKGQPREPQVYTLPPSREEMTDNQVSLTCLVKGFYPSDIAVEWESNGQPENNYKTTPPVLMSDGSFFLASKLTVDKSRWQQGNVFSCSVMHEALHNHYTQKSLSLSPG
light 1: B2 light 2 with D1R, R37D, D41K, E122K, S130R
heavy 2: EVQLVESGGVLVKTGGSLRLSCVASGFSFKKAWMNWVRYAPGKGLEWVGRIKRNSDGGAADYAARVKDRFTLSRDDSKNTLYLQMNSLKTEDTAVYYCTTLDSSSWYVGYYYMDVWGRGTTVTVSSASTKGPSVFPLAPSSKSTSGGTAALGCLVKDYFPEPVTVSWNSGALTSGVHTFPAVLQSSGLYSLSSVVTVPSSSLGTQTYICNVNHKPSNTKVDKKVEPKSCDKTHTCPPCPAPEAAGGPSVFLFPPKPKDTLMISRTPEVTCVVVDVSHEDPEVKFNWYVDGVEVHNAKTKPREEQYNSTYRVVSVLTVLHQDWLNGKEYKCKVSNKALPAPIEKTISKAKGQPRRPRVYTLPPSREEMTKNQVSLVCLVKGFYPSDIAVEWESNGQPENNYKTTPPVLDSDGSFFLYSVLTVDKSRWQQGNVFSCSVMHEALHNHYTQKSLSLSPG
light 2: DIHMTQSPSSVSASLGDRVTFTCRASQNINNWLAWYQRKPGDAPKLLIYTASSLQSGVPSRFSGSGSGTDFTLTISSLQPDDFATYYCQQAHSLPITFGQGTRLGIKRTVAAPSVFIFPPSDEQLKSGTASVVCLLNNFYPREAKVQWKVDNALQSGNSQESVTEQDSKDSTYSLSSTLTLSKADYEKHKVYACEVTHQGLSSPVTKSFNRGEC
- Max killing %: 83.6%

Second part, the binder before the results:

B1: GOMP001_bsAb_029 (bispecific antibody, human IgG1, kappa, L234A L235A)
heavy 1: B3 heavy 1
light 1: B2 light 2 with D1R, R37D, D41K, E122K, S130R
heavy 2: QVQLVQSGAEVKKPGASVKVSCKASGYTVTGYYMHWVRYAPGQGLEWMGWINPNSGGTNFAQRFQGRVTMTRDTSISTFYMDLNRLRSDDTAVYYCARGGAPVSYWFFDLWGRGTLVTVSSASTKGPSVFPLAPSSKSTSGGTAALGCLVKDYFPEPVTVSWNSGALTSGVHTFPAVLQSSGLYSLSSVVTVPSSSLGTQTYICNVNHKPSNTKVDKKVEPKSCDKTHTCPPCPAPEAAGGPSVFLFPPKPKDTLMISRTPEVTCVVVDVSHEDPEVKFNWYVDGVEVHNAKTKPREEQYNSTYRVVSVLTVLHQDWLNGKEYKCKVSNKALPAPIEKTISKAKGQPRRPRVYTLPPSREEMTKNQVSLVCLVKGFYPSDIAVEWESNGQPENNYKTTPPVLDSDGSFFLYSVLTVDKSRWQQGNVFSCSVMHEALHNHYTQKSLSLSPG
light 2: DIQMTQSPSSLSASVGDRVTITCRASQSISRYLNWYQRKPGDAPKVLIYNTSSLKSGVPSRFSGSGSGTDFTLTISSLQPEDFGTFYCQQSHSTPFTFGPGTKVDIKRTVAAPSVFIFPPSDEQLKSGTASVVCLLNNFYPREAKVQWKVDNALQSGNSQESVTEQDSKDSTYSLSSTLTLSKADYEKHKVYACEVTHQGLSSPVTKSFNRGEC
- Max killing %: 81.1%
- X… HeLa EC50: 0.136 nM

B4: GOMP001_bsAb_030 (bispecific antibody, human IgG1, kappa, L234A L235A)
heavy 1: QVQLVQSGAEVKKPGASVKVSCKASGYTVTGYYMHWVRKAPGQGLEWMGWINPNSGGTNFAQEFQGRVTMTRDTSISTFYMDLNRLRSDDTAVYYCARGGAPVSYWFFDLWGRGTLVTVSSASTKGPSVFPLAPSSKSTSGGTAALGCLVADYFPEPVTVSWNSGALTSGVHTFPAVLQSSGLYSLSSVVTVPSSSLGTQTYICNVNHKPSNTKVDEKVEPKSCDKTHTCPPCPAPEAAGGPSVFLFPPKPKDTLMISRTPEVTCVVVDVSHEDPEVKFNWYVDGVEVHNAKTKPREEQYNSTYRVVSVLTVLHQDWLNGKEYKCKVSNKALPAPIEKTISKAKGQPREPQVYTLPPSREEMTDNQVSLTCLVKGFYPSDIAVEWESNGQPENNYKTTPPVLMSDGSFFLASKLTVDKSRWQQGNVFSCSVMHEALHNHYTQKSLSLSPG
light 1: B1 light 2 with D1R, R38D, D42K, E123K, S131R
heavy 2: B2 heavy 2
light 2: B2 light 2
- Max killing %: 92.6%
- X… HeLa EC50: 0.0454 nM

B5: GOMP001_bsAb_031 (bispecific antibody, human IgG1, kappa, L234A L235A)
heavy 1: B3 heavy 1
light 1: B2 light 2 with D1R, R37D, D41K, E122K, S130R
heavy 2: QGQLVESGGGVVQPGRSLRLSCAASGFTFRGFGMHWVRYAPGKGLEWVAIIYYDGKNKYYADRVKGRFTISRDNSKNTLYLQMNSLRAEDTAVYYCAKGGGYNWFDPWGRGTLVTVSSASTKGPSVFPLAPSSKSTSGGTAALGCLVKDYFPEPVTVSWNSGALTSGVHTFPAVLQSSGLYSLSSVVTVPSSSLGTQTYICNVNHKPSNTKVDKKVEPKSCDKTHTCPPCPAPEAAGGPSVFLFPPKPKDTLMISRTPEVTCVVVDVSHEDPEVKFNWYVDGVEVHNAKTKPREEQYNSTYRVVSVLTVLHQDWLNGKEYKCKVSNKALPAPIEKTISKAKGQPRRPRVYTLPPSREEMTKNQVSLVCLVKGFYPSDIAVEWESNGQPENNYKTTPPVLDSDGSFFLYSVLTVDKSRWQQGNVFSCSVMHEALHNHYTQKSLSLSPG
light 2: B2 light 1 with R1D, D38R, K42D, K123E, R131S
- Max killing %: 68.8%
